One block for each molecule: values may come before it.
Columns and labels:
AcnA = AcnA (Escherichia coli, UniProt P25516); details: citrate 0.1 to 50 mM; enzyme reactivated with 1 mM (NH4)2Fe(SO4)2 and 5 mM DTT, 50 mM Tris pH 8
AcnB = AcnB (Escherichia coli, UniProt P36683); details: citrate 0.1 to 50 mM; enzyme reactivated with 1 mM (NH4)2Fe(SO4)2 and 5 mM DTT, 50 mM Tris pH 8
purified protein = substrate: O=C(O)CC(O)(CC(=O)O)C(=O)O; assay: purified protein; details: citrate 0.1 to 50 mM, enzyme reactivated with 1 mM (NH4)2Fe(SO4)2 and 5 mM DTT, 50 mM Tris pH 8

Km (AcnA): 3.45 ± 0.23 mM
Km (AcnB): 9.76 ± 0.67 mM
Molecule: O=C(O)CC(O)(CC(=O)O)C(=O)O [citrate]

B1: AcnB (Escherichia coli K-12) (protein)
chain: MLEEYRKHVAERAAEGIAPKPLDANQMAALVELLKNPPAGEEEFLLDLLTNRVPPGVDEAAYVKAGFLAAIAKGEAKSPLLTPEKAIELLGTMQGGYNIHPLIDALDDAKLAPIAAKALSHTLLMFDNFYDVEEKAKAGNEYAKQVMQSWADAEWFLNRPALAEKLTVTVFKVTGETNTDDLSPAPDAWSRPDIPLHALAMLKNAREGIEPDQPGVVGPIKQIEALQQKGFPLAYVGDVVGTGSSRKSATNSVLWFMGDDIPHVPNKRGGGLCLGGKIAPIFFNTMEDAGALPIEVDVSNLNMGDVIDVYPYKGEVRNHETGELLATFELKTDVLIDEVRAGGRIPLIIGRGLTTKAREALGLPHSDVFRQAKDVAESDRGFSLAQKMVGRACGVKGIRPGAYCEPKMTSVGSQDTTGPMTRDELKDLACLGFSADLVMQSFCHTAAYPKPVDVNTHHTLPDFIMNRGGVSLRPGDGVIHSWLNRMLLPDTVGTGGDSHTRFPIGISFPAGSGLVAFAAATGVMPLDMPESVLVRFKGKMQPGITLRDLVHAIPLYAIKQGLLTVEKKGKKNIFSGRILEIEGLPDLKVEQAFELTDASAERSAAGCTIKLNKEPIIEYLNSNIVLLKWMIAEGYGDRRTLERRIQGMEKWLANPELLEADADAEYAAVIDIDLADIKEPILCAPNDPDDARPLSAVQGEKIDEVFIGSCMTNIGHFRAAGKLLDAHKGQLPTRLWVAPPTRMDAAQLTEEGYYSVFGKSGARIEIPGCSLCMGNQARVADGATVVSTSTRNFPNRLGTGANVFLASAELAAVAALIGKLPTPEEYQTYVAQVDKTAVDTYRYLNFNQLSQYTEKADGVIFQTAV
Km (purified protein): 9.34 ± 0.72 mM
kcat (purified protein): 63.5 ± 4.52 s⁻¹

B2: AcnA (Escherichia coli K-12) (protein)
chain: SSTLREASKDTLQAKDKTYHYYSLPLAAKSLGDITRLPKSLKVLLENLLRWQDGNSVTEEDIHALAGWLKNAHADREIAYRPARVLMQDFTGVPAVVDLAAMREAVKRLGGDTAKVNPLSPVDLVIDHSVTVDRFGDDEAFEENVRLEMERNHERYVFLKWGKQAFSRFSVVPPGTGICHQVNLEYLGKAVWSELQDGEWIAYPDTLVGTDSHTTMINGLGVLGWGVGGIEAEAAMLGQPVSMLIPDVVGFKLTGKLREGITATDLVLTVTQMLRKHGVVGKFVEFYGDGLDSLPLADRATIANMSPEYGATCGFFPIDAVTLDYMRLSGRSEDQVELVEKYAKAQGMWRNPGDEPIFTSTLELDMNDVEASLAGPKRPQDRVALPDVPKAFAASNELEVNATHKDRQPVDYVMNGHQYQLPDGAVVIAAITSCTNTSNPSVLMAAGLLAKKAVTLGLKRQPWVKASLAPGSKVVSDYLAKAKLTPYLDELGFNLVGYGCTTCIGNSGPLPDPIETAIKKSDLTVGAVLSGNRNFEGRIHPLVKTNWLASPPLVVAYALAGNMNINLASEPIGHDRKGDPVYLKDIWPSAQEIARAVEQVSTEMFRKEYAEVFEGTAEWKGINVTRSDTYGWQEDSTYIRLSPFFDEMQATPAPVEDIHGARILAMLGDSVTTDHISPAGSIKPDSPAGRYLQGRGVERKDFNSYGSRRGNHEVMMRGTFANIRIRNEMVPGVEGGMTRHLPDSDVVSIYDAAMRYKQEQTPLAVIAGKEYGSGSSRDWAAKGPRLLGIRVVIAESFERIHRSNLIGMGILPLEFPQGVTRKTLGLTGEEKIDIGDLQNLQPGATVPVTLTRADGSQEVVPCRCRIDTATELTYYQNDGILHYVIRNMLK
Km (purified protein): 1.64 ± 0.21 mM
kcat (purified protein): 20.6 ± 1.62 s⁻¹
